Results taken from the nanobody polyreactivity screen of Harvey et al. (2022).

Test: yeast display, Sf9 membrane polyspecificity reagent, FACS + sequencing; frameworks hold sequencing errors
Outline: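 A synthetic nanobody library was expressed on Saccharomyces cerevisiae BJ5465 by galactose induction for 36–48 hours. The library was stained for 1 hour at 4 °C with 10% biotinylated, detergent-solubilized Sf9 membrane reagent and enriched with streptavidin microbeads before FACS. Low and high (top ~1%) gates were set on anti-HA fluorescence for expression and streptavidin fluorescence for reagent binding, and each polyreactivity label reflects the gate of origin.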

Sequence | polyreactivity (PSR sort gate)
QVQLVESGGGLVQAGGSLRLSCAAYGSTLATNAMGWYRPAPGKERELVAYADSVKGRFTISRDNAKNTVYLQMNSLKPEDTAVYYCAKDALVIDGGGGYDYWGQGTQVTVSS | low polyreactivity
QVQLVESGGGLVQAGGSLRLSCAAYGSTLLTYTMGWYRQAPGKERELVASITTSGGSTYYADSVKGRFTISRDNAKNTVYLQMNSLKPEDTAVYYWGQGTQVTVSS | low polyreactivity
QVQLVESGGGLVQAGGSLRLSCAAYGYTFRGYAMGRYRQAPGKEREFVAAINWSDGSTYYADSVKGRFTISRDNAKNTVYLQMNSLKPEDTAVYYCNADQYYRFPDNYLGQGTQVTVSS | low polyreactivity
QVQLVESGGGLVQAGGSLRLSCAAYYAMGWYRQAPVKERELVAAISSTGRTNYADSVKGRFTISRDNAKNTVYLQMNSLKPEDTAVYYCAAEWHYIYAYDYWGQGTQVTVSS | low polyreactivity
QVQLVESGGGLVQAGGSLRLSCADSARTFYYNTKGWYRQAPGKERELVASISGSGGRTYYADSVKGRFTISRDNAKNTVYLQMNSLKPEDTAVYYFAAGSIRYRFPFGYDYWGQGTQVTLSS | high polyreactivity
QVQLVESGGGLVQAGGSLRLSCADSGFIFAYYVMGWYRQAPGKERELVAAISRGGGSTYYADSVKGRFTISRDNAKYTVYLQMNSLKPEDTAVYYCATYSHALRYDYWGQGTQVTVSS | high polyreactivity
QVQLVESGGGLVQAGGSLRLSCADSGFIFPNYGMGSYRQAPGKERELVAYADSVKGRFTISRDNAKNTVYLQMNSLKPEDTAVYYCNADPPYTRWADYWHGGGYWGQGTQVTVSS | low polyreactivity
QVQLVESGGGLVQAGGSLRLSCADSGFIFSAHAMGGYSQAPGKDRELVAAISRTGGSTYYADSVKGRFTISRDNAKNTVYLQMNSLKPEETAGYYGAAYIRYGGLAYDSNYWGQGTQVTVSS | high polyreactivity
QVQLVESGGGLVQAGGSLRLSCADSGFIFVDYVMGWYRQSPGKERELVASISASGGTTYYADSVKGRLTISLDNAKNTVYLQMNSLKPEDTAVYYCNARWSPVNLRYGREGDYWGQGTQVTVSS | high polyreactivity
QVQLVESGGGLVQAGGSLRLSCADSGFIFVVKAMGWYRQAPGKEREIVAVISSSTGSTYYADSVKGRFTISRDNAKNTVYLQLNSLKPEDTAVYSCAAASRRRRPLKRMYYWGQGTQVTVSS | low polyreactivity
QVQLVESGGGLVQAGGSLRLSCADSGFIFWYYAMGWYRQAPGKERELVAAISWSGDSTYYADSVKWRFTISRDTANNTVYLQMNSLKPEDTAVYYCAVYDELDVFYNGYDYWGQGTQVTVSS | high polyreactivity
QVQLVESGGGLVQAGGSLRLSCADSGFILWYNAMGWYRQAPGKERELVARIDVRGGSTYYADSVKGRFTISRDNAKNTVYLQMNSLKPEDTAVYYCARKRQGPASRARYDYWGQGTQVTVSS | low polyreactivity
QVQLVESGGGLVQAGGSLRLSCADSGFNFKYYAMGWYRQAPGKERELVATITSRGGSTYYADSVKGRFTISRDNAKNTVYLQMNSLKPEATAVYYCNARSSSPGKYGYWGQGTQVTVSS | high polyreactivity
QVQLVESGGGLVQAGGSLRLSCADSGFTFFSNAMGWYRQAPGKERELVAAITSSGRSTYADSVKGRYTISRDKAKNTVYLQMNSLKPEDSAVYYCAARRTGYLYRYGYWGQGTQVTVSS | low polyreactivity
QVQLVESGGGLVQAGGSLRLSCADSGFTFILYAMGWYRQAPGKERELVAAITTSGGRTYYADSVKGRFTISRDNAKNTVYLQMNSLKPEDTAVYYCAAKEYYTPYRRGYWGQGTQVTVSS | high polyreactivity
QVQLVESGGGLVQAGGSLRLSCADSGFTFPSYAMGGYRQAPGKERELVDVISRRGGSTYYADSVKGRFTISRDNAKNTVYLQMNSLKPEDTAVYYCARPRQPGSLYGYWGQGTQVTVSS | high polyreactivity
QVQLVESGGGLVQAGGSLRLSCADSGFTFPSYTMGWYRQAPGKERDLDASIRVSGGRTYYADSVKGRFTISRDNAKNTVYLQMNSLKPEDTAVYYCAADYMTWWGGRYDYWGQGTQVTVSS | high polyreactivity
QVQLVESGGGLVQAGGSLRLSCADSGFTFSLNTMGWYRQAPGKERELVAAINSGDSTYADSVKGRFTISRDNAKNTVYLQMNSLKPEDTAVYYCNADPDWWYPYIYWGQGTQVTVSS | low polyreactivity
QVQLVESGGGLVQAGGSLRLSCADSGFTFSQYAAIGWYRQAPGKERELVAAINISGSTNYADSVKGRFTISRDNAKNTVYLQMNSLKPEDTAVYYCAAQQSWKIYDYWGLGTQVTVSS | low polyreactivity
QVQLVESGGGLVQAGGSLRLSCADSGFTFTYYAMGWYRQAPGKERELVAGITRSGGSTYYADSVKGRFTISRDTAKNTVYLQMNSLKPEDTAVYYCAVKFVRYRQGIVLYDYWGQGTQVTVSS | high polyreactivity
QVQLVESGGGLVQAGGSLRLSCADSGITFYEFGMGWYRQAPGKERELVAAITTDGRTNYADSVKGRFTISRDNATNTVYLQMNILKPEDTAVYYCAVVHYFWGFYSVDYWGQGTQETVSS | high polyreactivity
QVQLVESGGGLVQAGGSLRLSCADSGLIIARNAMVWYRHAPGTERELVAAITRGGSTYYADSVKGSFTISRDNAKNTVYLLMNSLKPEDTAVYYCNARFRRYYYYGMDYWGQGTQVTVSS | high polyreactivity

Sequence | polyreactivity (PSR sort gate)
QVQLVESGGGLVQAGGSLRLSCADSGNIFNYYAMGWYRQAPGKERELVAAISTSGGRTYYADSVKGRFTISRDNAKNTVYLQMNSLKPEDTAVYYCAKVNRLYTYDYWGQGTQVTVSS | high polyreactivity
QVQLVESGGGLVQAGGSLRLSCADSGNILGYNAMGSYRQAPGKATELVAAISDNADSTYYADSVKGRFTISRDNAKNTVYLQMKSLKPEDTAVYYGAADWVHRTWLFWYTKYDYWGQGTQVTVSS | low polyreactivity
QVQLVESGGGLVQAGGSLRLSCADSGNTFSYYAMGWYRQAPGKEREFVAAIRKSGASTYYADSVKGRFTISRDNAKNTVYLEMNSLKPEDTAVYYCAADGQVSYALGFDYCGQGTQVTVSS | high polyreactivity
QVQLVESGGGLVQAGGSLRLSCADSGNTLSYYVMGWYRQAPGKERELVADITSGGTTNYADSVKGRFTISRDNAKNTVYLQMNSLKAEDTAVYYCAAGPYKRPPWLRQGGYDYWGQGTQVTVSS | low polyreactivity
QVQLVESGGGLVQAGGSLRLSCADSGPTIFYYAMGWYRTAPGKERELVAAIRRSGGRTRYADSVKGRFTISRDNAKNTVYLQMNSLKPEDTAVYYCAADDGTHRRGYDYWGQGTQVTVSS | low polyreactivity
QVQLVESGGGLVQAGGSLRLSCADSGRIFDLNAMGWYRQAPGKERELVAAITWSGDSTYYADSVKGRFTISRDNAKNTVYLQMNSLKPEDTAVYYCAAASRTSYSWVDYEFDYWGQGTQVTVSS | low polyreactivity
QVQLVESGGGLVQAGGSLRLSCADSGRIFGRYAMGWYRQAPGKERDLVAAIRSGGSTYYADSVKGRFTISRDNAKNSVYLQMNSLKPEDTAVYYCAADWGPFRLGYGYYYWGQGTQVTVSS | high polyreactivity
QVQLVESGGGLVQAGGSLRLSCADSGRIFGSNAMGWYRQAPGKERELVAAISWRGASTYYADSVKGRFTISRDNAKNTVYLQMNSLKPEDTAVYYCATRGQTRTTTRYYSWGQGTQVTVSS | high polyreactivity
QVQLVESGGGLVQAGGSLRLSCADSGRIIQYNAMGWYRQAPGKERDLDAAISYRGGSTYYADSVKGRYTISRDNAKNTVYLQMNSLKPEDTAVYYCAVEYPVYYYVEYDYWGQGTQVTVSS | high polyreactivity
QVQLVESGGGLVQAGGSLRLSCADSGRNFYIYAMGWYRKAPGKERELVAAISISGSTYYADSVKGRFTISRDNAKNTVFLQMNSLKPEDTAVYYCAARDPGVAVGAAFDSWGQGTQVTVSS | low polyreactivity
QVQLVESGGGLVQAGGSLRLSCADSGRNFYYYAMGWYRQAPGKERELVAAITSGGRTNYADSVKGRFTISRDNAKNNVYLQMNSLKPEDTAVYYGAATSKYKVRYSRYYYWGQGTQVTVSS | high polyreactivity
QVQLVESGGGLVQAGGSLRLSCADSGRTFFYNGMGWYRQAPGKERELVAAISGSGSRTYYADSVKGRFTISRDNAKNTVYLQMNSLKPEDTAVYYCAATRVISHYRFDYWGQGTQVTVSS | high polyreactivity
QVQLVESGGGLVQAGGSLRLSCADSGRTFGGYAMGWYRQAPGKQRELVASITWSGGSTYYADSVKGRFTISRDNAKNNVYLQMNSLKPEDTAVYYCGARTYQSRSTRMDYWGQGTQVTVSS | low polyreactivity
QVQLVESGGGLVQAGGSLRLSCADSGRTFKYYAMGWYRQAPGKARELVAAIRSTGGSKYYADSVKGRFTISRDNAKNTVYLQMNSLKPEDTAVYYCNARRYPRYVFSRYDYWGQGTQVTVSS | high polyreactivity
QVQLVESGGGLVQAGGSLRLSCADSGRTFNYYDMGWYRQAPGKERELVASITGSGGNTYYADSVKGRFTFSRDNAKNTVYLQMNSLKPEDTAVYYCAKAIGNFLYYYWLYHSSYEYDYWGQGTQVTVSS | low polyreactivity
QVQLVESGGGLVQAGGSLRLSCADSGRTFRANAMGWYRQAPGKERELVAAITSTGDRTYYADSVKGRFTISRDNAKNTVYLQMNSLKPEDTAVYYGNAVYDLYHYWKFYYWGQGTQVTVSS | low polyreactivity
QVQLVESGGGLVQAGGSLRLSCADSGRTFRIYAMGWYRQAPGKERELVARITKRAGSTYYADSVKGRFTISRDNAKNTVYLQMNSLKPEDTAVYYCAATHYQWRGRYGYWRQGTQVTVSS | high polyreactivity
QVQLVESGGGLVQAGGSLRLSCADSGRTFRYYAMGWYRQAPGKERELVAAITSGGSTYYADSVKGRFTISRDNAKNTVYLQMNSLKPEDTAVYYCAAARYEPFIYDYGYWGQGTQVTVSS | low polyreactivity
QVQLVESGGGLVQAGGSLRLSCADSGRTFWSNSMGWYRQAPGKERELVARIDSTYYADSVKGRFTISRDNAKNTVYLQMNSLKPEDTAFYYCNADTIYYAGDFRYDYWGQGTQVTVSS | low polyreactivity
QVQLVESGGGLVQAGGSLRLSCADSGRTFYHDTMGWYRQAPGKERELVARITRRVGSTYYADSVKGRFTISRDNAKNTVYLQMNSLKPEDTAVYYCNAKSGLYRYLLDYWGQGTQVTVSS | high polyreactivity
QVQLVESGGGLVQAGGSLRLSCADSGRTFYSYAMGWYRQAPGKERELVAAISASGGRTYYADSVKGRFTISRDNAKNTVYLQMNSLKPEDTAVYYCAAYVSGYRWGYDYWGQGTQVTVSS | high polyreactivity
